Drawing on publication PMC2741138 (Journal of molecular biology, 2008), this text covers Ki for 12 molecules.

B1: ASF(ΔRRM1)-His (domain or fragment)
chain: GGAPRGRYGPPSRRSENRVVVSGLPPSGSWQDLKDHMREAGDVCYADVYRDGTGVVEFVRKEDMTYAVRKLDNTKFRSHEGETAYIRVKVDGPRSPSYGRSRSRSRSRSRSRSRSNSRSRSYSPRRSRGSPRYSPRHSRSRSRT
B2: ASF(RS12)-His (domain or fragment)
chain: PRSPSYGRSRSRSRSRSRSRSRSNSRSRSYSPRRSRGSPRYSPRHSRSRSRT
B3: ASF(ΔRRM12)-His (domain or fragment)
chain: GPRSPSYGRSRSRSRSRSRSRSRSNSRSRSYSPRRSRGSPRYSPRHSRSRSRT
B4: (RS)8 (peptide)
chain: RSRSRSRSRSRSRSRS
modifications: Expanded from the printed formula (RS)8; any flanking residues or end caps are not stated
B5: ASF(RRM1) (domain or fragment)
chain: MSGGGVIRGPAGNNDCRIYVGNLPPDIRTKDIEDVFYKYGAIRDIDLKNRRGGPPFAFVEFEDPRDAEDAVYGRDGYDYDGYRLRVEFPRS
B6: ASF(RRM2) (domain or fragment)
chain: NRVVVSGLPPSGSWQDLKDHMREAGDVCYADVYRDGTGVVEFVRKEDMTYAVRKLDNTKFRSHEGETAYIRVKVDGPRSPSYG
B7: (RS)16 (peptide)
chain: RSRSRSRSRSRSRSRSRSRSRSRSRSRSRSRS
modifications: Expanded from the printed formula (RS)16; any flanking residues or end caps are not stated

Where “and” joins values, the source holds several entries; their conditions need not be identical. Equal entries are not always repeated.

T1 sequence (Q96SB4 whole entry): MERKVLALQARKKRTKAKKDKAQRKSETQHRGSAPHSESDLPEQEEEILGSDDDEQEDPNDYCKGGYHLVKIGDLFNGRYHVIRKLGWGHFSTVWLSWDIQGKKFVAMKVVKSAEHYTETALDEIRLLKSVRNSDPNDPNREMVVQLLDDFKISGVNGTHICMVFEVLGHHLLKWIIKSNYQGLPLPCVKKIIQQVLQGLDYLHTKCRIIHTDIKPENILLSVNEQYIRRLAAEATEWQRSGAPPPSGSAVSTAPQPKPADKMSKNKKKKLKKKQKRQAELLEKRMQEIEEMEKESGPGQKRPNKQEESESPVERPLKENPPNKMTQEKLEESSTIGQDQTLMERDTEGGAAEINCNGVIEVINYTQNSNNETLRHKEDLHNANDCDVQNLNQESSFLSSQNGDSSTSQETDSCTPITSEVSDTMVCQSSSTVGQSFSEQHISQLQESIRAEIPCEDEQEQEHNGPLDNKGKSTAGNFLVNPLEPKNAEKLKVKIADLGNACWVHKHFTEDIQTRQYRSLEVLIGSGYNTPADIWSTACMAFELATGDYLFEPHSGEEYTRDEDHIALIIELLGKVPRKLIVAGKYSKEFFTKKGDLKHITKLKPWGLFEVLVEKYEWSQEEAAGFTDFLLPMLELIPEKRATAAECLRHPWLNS
Chain of SRPK1 (UniProt Q96SB4) (Q96SB4 whole entry): as above

The first experiment has as its target SRPK1 (UniProt Q96SB4). Put plainly: kinase competition assay.
Broadly, the Ki is the dissociation constant of the complex between target and ligand, obtained from inhibition or displacement. A low value points to higher affinity. “Block 3/4 (from UniProt Q07955 1-248) (natural protein)” had a Ki of 120 nM.
Same read-out and setting: the figure for ASF(ΔRS2) (domain or fragment) is 170 nM; for “Block 1/2 (from UniProt Q07955 1-248) (natural protein)” it is 40 nM.
Same read-out and setting: the figure for ASF(ΔRS) (domain or fragment) is 180 nM; for “Block 2/3 (from UniProt Q07955 1-248) (natural protein)” it is 45 nM.

A further experiment addresses T1, SRPK1 (UniProt Q96SB4 1-655). Put plainly: kinase competition assay.
As for B1, the Ki is 54 ± 5 nM.
The same measure, in the same setting: the figure for B2 is 190 ± 13 nM.
On the same count and under the same terms, the figure for B3 is 70 ± 15 nM.

The target in another experiment is T1, SRPK1. Put plainly: kinase competition assay. This is another data set of the same source.
For B4, the Ki was 1800 nM and 1600 nM.
Same read-out and setting: the figure for B5 is 1600 ± 400 nM.
On the same count and under the same terms, the figure for B6 is 6300 ± 1900 nM.
Still for that read-out and setting: the figure for B7 is 160 ± 41 nM.
